Where a chain is given by its changes, count along the chain named. In names and notes the source's numbering stands.
B1: FKBP-121: FKBP13 DRD Q72R, Q84E, A117W, I136V; SEQ ID NO: 71 (protein)
chain: HCPIKSRKGDVLHMHYTGKLEDGTEFDSSLPRNQPFVFSLGTGEVIKGWDQGLLGMCEGEKRKLVIPSELGYGERGWPPKIPGGATLVFEVELLKVER
modifications: Description of sequence: FKBP13-AcGFP-mCherry Fusion; Construct Name: FKBP-121; FKBP13 DRD in Construct : FKBP13 (mutated to match FKBP12 active site Q72R Q84E A117W) (DRD I136V)
B2: FKBP-132: FKBP13 DRD Q72R, Q84E, A117W, G92Y; SEQ ID NO: 82 (protein)
chain: B1 chain with G52Y, V96I
modifications: Description of sequence: FKBP13-AcGFP-mCherry Fusion; Construct Name: FKBP-132; FKBP13 DRD in Construct : FKBP13 (mutated to match FKBP12 active site Q72R Q84E A117W) (DRD G92Y)
B3: FKBP-130: FKBP13 DRD Q72R, Q84E, A117W, P107K; SEQ ID NO: 80 (protein)
chain: B1 chain with P67K, V96I
modifications: Description of sequence: FKBP13-AcGFP-mCherry Fusion; Construct Name: FKBP-130; FKBP13 DRD in Construct : FKBP13 (mutated to match FKBP12 active site Q72R Q84E A117W) (DRD P107K)
B4: FKBP-127: FKBP13 DRD Q72R, Q84E, A117W, F76Q; SEQ ID NO: 77 (protein)
chain: B1 chain with F36Q, V96I
modifications: Description of sequence: FKBP13-AcGFP-mCherry Fusion; Construct Name: FKBP-127; FKBP13 DRD in Construct : FKBP13 (mutated to match FKBP12 active site Q72R Q84E A117W) (DRD F76Q)
B5: FKBP-128: FKBP13 DRD Q72R, Q84E, A117W, H53L; SEQ ID NO: 78 (protein)
chain: B1 chain with H13L, V96I
modifications: Description of sequence: FKBP13-AcGFP-mCherry Fusion; Construct Name: FKBP-128; FKBP13 DRD in Construct : FKBP13 (mutated to match FKBP12 active site Q72R Q84E A117W) (DRD H53L)
B6: FKBP-135: FKBP13 DRD Q72R, Q84E, A117W, E61Y; SEQ ID NO: 85 (protein)
chain: B1 chain with E21Y, V96I
modifications: Description of sequence: FKBP13-AcGFP-mCherry Fusion; Construct Name: FKBP-135; FKBP13 DRD in Construct : FKBP13 (mutated to match FKBP12 active site Q72R Q84E A117W) (DRD E61Y)
B7: FKBP-131: FKBP13 DRD Q72R, Q84E, A117W, T126C; SEQ ID NO: 81 (protein)
chain: B1 chain with T86C, V96I
modifications: Description of sequence: FKBP13-AcGFP-mCherry Fusion; Construct Name: FKBP-131; FKBP13 DRD in Construct : FKBP13 (mutated to match FKBP12 active site Q72R Q84E A117W) (DRD T126C)
B8: FKBP-125: FKBP13 DRD Q72R, Q84E, A117W, D62S; SEQ ID NO: 75 (protein)
chain: B1 chain with D22S, V96I
modifications: Description of sequence: FKBP13-AcGFP-mCherry Fusion; Construct Name: FKBP-125; FKBP13 DRD in Construct : FKBP13 (mutated to match FKBP12 active site Q72R Q84E A117W) (DRD D62S)
B9: FKBP-136: FKBP13 DRD Q72R, Q84E, A117W, S108M; SEQ ID NO: 86 (protein)
chain: B1 chain with S68M, V96I
modifications: Description of sequence: FKBP13-AcGFP-mCherry Fusion; Construct Name: FKBP-136; FKBP13 DRD in Construct : FKBP13 (mutated to match FKBP12 active site Q72R Q84E A117W) (DRD S108M)
B10: FKBP-123: FKBP13 DRD Q72R, Q84E, A117W, G49S; SEQ ID NO: 73 (protein)
chain: B1 chain with G9S, V96I
modifications: Description of sequence: FKBP13-AcGFP-mCherry Fusion; Construct Name: FKBP-123; FKBP13 DRD in Construct : FKBP13 (mutated to match FKBP12 active site Q72R Q84E A117W) (DRD G49S)
B11: FKBP-133: FKBP13 DRD Q72R, Q84E, A117W, G83T; SEQ ID NO: 83 (protein)
chain: B1 chain with G43T, V96I
modifications: Description of sequence: FKBP13-AcGFP-mCherry Fusion; Construct Name: FKBP-133; FKBP13 DRD in Construct : FKBP13 (mutated to match FKBP12 active site Q72R Q84E A117W) (DRD G83T)
B12: FKBP-124: FKBP13 DRD Q72R, Q84E, A117H, G49S; SEQ ID NO: 74 (protein)
chain: B1 chain with G9S, W77H, V96I
modifications: Description of sequence: FKBP13-AcGFP-mCherry Fusion; Construct Name: FKBP-124; FKBP13 DRD in Construct : FKBP13 (mutated to match FKBP12 active site Q72R Q84E A117H) (DRD G49S)
B13: FKBP-129: FKBP13 DRD Q72R, Q84E, A117W, E98L; SEQ ID NO: 79 (protein)
chain: B1 chain with E58L, V96I
modifications: Description of sequence: FKBP13-AcGFP-mCherry Fusion; Construct Name: FKBP-129; FKBP13 DRD in Construct : FKBP13 (mutated to match FKBP12 active site Q72R Q84E A117W) (DRD E98L)
B14: FKBP-137: FKBP13 DRD Q72R, Q84E, A117W, P75L; SEQ ID NO: 87 (protein)
chain: B1 chain with P35L, V96I
modifications: Description of sequence: FKBP13-AcGFP-mCherry Fusion; Construct Name: FKBP-137; FKBP13 DRD in Construct : FKBP13 (mutated to match FKBP12 active site Q72R Q84E A117W) (DRD P75L)
B15: FKBP-122: FKBP13 DRD Q72R, Q84E, A117H, I136V; SEQ ID NO: 72 (protein)
chain: B1 chain with W77H
modifications: Description of sequence: FKBP13-AcGFP-mCherry Fusion; Construct Name: FKBP-122; FKBP13 DRD in Construct : FKBP13 (mutated to match FKBP12 active site Q72R Q84E A117H) (DRD I136V)
B16: FKBP-126: FKBP13 DRD Q72R, Q84E, A117H, D62S; SEQ ID NO: 76 (protein)
chain: B1 chain with D22S, W77H, V96I
modifications: Description of sequence: FKBP13-AcGFP-mCherry Fusion; Construct Name: FKBP-126; FKBP13 DRD in Construct : FKBP13 (mutated to match FKBP12 active site Q72R Q84E A117H) (DRD D62S)
B17: FKBP-134: FKBP13 DRD Q72R, Q84E, A117W, H41R; SEQ ID NO: 84 (protein)
chain: B1 chain with H1R, V96I
modifications: Description of sequence: FKBP13-AcGFP-mCherry Fusion; Construct Name: FKBP-134; FKBP13 DRD in Construct : FKBP13 (mutated to match FKBP12 active site Q72R Q84E A117W) (DRD H41R)

Each molecule was assayed on Jurkat cells (assay: Tacrolimus dose response of FKBP13-AcGFP-mCherry constructs stably transduced into Jurkat cells, GFP MFI by flow cytometry). Details: tacrolimus, Jurkat cells stably transduced; Table 6.
Assay type: cell-based
Method: The regulation of AcGFP, from FKBP13-AcGFP-mCherry constructs, in Jurkat cells, was also studied. Jurkat Clone E6-1 cells were cultured in standard media (RPMI+GlutaMAX Supplement (Life Technologies, Carlsbad, CA Cat #61870127), Fetal Bovine Serum (FBS) (Life Technologies Cat #10-082-147)). Jurkat cells were transduced with lentivirus produced with each of FKBP-039, FKBP-040, FKBP-041, FKBP-042, FKBP-043, FKBP-044, or FKBP-045 constructs. Jurkat cells were transduced until they were 10-25% positive, as determined on day 5 post-transduction, by using mCherry as a transduction marker. […] The Geometric Mean Fluorescent Intensity (MFI) of GFP expression in mCherry+ cells was plotted and dose response curve fits were performed using Prism Software (San Diego, CA).
FKBP-091 was used as a comparative construct.
FIGS. 22-38 show the results of characterization of FKBP-160-292. […] FKBP-091 and FKBP-117 was used as a comparative control for FKBP-160-FKBP-255. FKBP-195 was used as a comparative control for FKBP-256-FKBP-275. FKBP-117, FPBP-195 and FKBP-251 were used as a comparative control for FKBP-276-FKBP-292.
FKBP mutants were cloned in a manner to make a fusion protein with AcGFP in order to assess FKBP mutant regulation by using AcGFP expression as a readout. […] Further iterative FKBP mutants (FKBP-256-FKBP-292) were constructed from these initial combinatorial mutants to see if we could further improve FKBP DRD properties.

In order of falling “Fold Change” value:
1. B10  48.38
2. B14  45.79
3. B12  40.13
4. B5  31.75
5. B8  29.07
6. B1  28.35
7. B16  25.70
8. B6  25.52
9. B15  22.51
10. B9  22.46
11. B7  21.30
12. B11  19.11
13. B13  17.11
14. B2  16.27
15. B17  15.64
16. B3  14.40
17. B4  10.25

From US20250186614A1, “COMPACT DRUG RESPONSIVE DOMAINS FOR REGULATION OF FUNCTION/ABUNDANCE AND DELIVERY OF POLYPEPTIDE PAYLOADS” (OBSIDIAN THERAPEUTICS, INC., priority 2022, published 2025)
